Tested on: Oxidatively competent cells
Test: Antimycin A-induced cell death in oxidatively competent cells, SYTOX assay after 4 hours
Type: cell-based, rat-human hybrid (GCL1)
Settings: lactoferrin alone at 100 μg/ml
From the text: The GCL1 (WiF-B) liver cell line is a hybrid originating from the fusion of rat hepatoma cells (fao) and human fibroblasts (W138). Cassio et al. (1991) J. Cell Biol. 115:1397-1408; Shanks et al. (1994) J. Cell Science 107:813-825. […] Ihrke et al. 1993, J. Cell Biol. 123:1761-1775. At greater than 80% confluence, more than 80% of the cells participate in forming one or more phaselucent, spherical structures that are located between cells, termed bile canicular-like spaces. In contrast to the majority of cell lines maintained in culture which are fermentative, GCL1 cells, when at their maximal density and polarity, are highly oxidative (i.e., they can be readily killed by inhibitors of oxidative phosphorylation or electron transport uncouplers). […] These cells are amenable to use in high throughput screening (HTS) technology.
Energetically competent cells are seeded onto 96-well plates at 1×10^3/well or 2.5×10^3/well as passage 15. The cells are grown in DMEM with 10% FBS and 1.5 g/L sodium bicarbonate for 24 or 48 hours to reach 85% confluence. The cells are washed once with HBSS and then 100 μl of HBSS containing different concentration of AA (Sigma Chemical Co., Cat # A 8674) is added to the cells. AA is dissolved in DMSO to make a stock solution of 50 mM, then diluted with HBSS to 100, 50, 25, 12.5, 6.25, 3.125, and 1.56 μM for dose-response curves. […]

B1: lactoferrin: Bovine lactoferrin, iron-binding glycoprotein of milk (Sigma cat. # L9507 or DMV International Nutritionals) (protein, UniProt P24627 20-708, looked up)
Lactotransferrin: APRKNVRWCTISQPEWFKCRRWQWRMKKLGAPSITCVRRAFALECIRAIAEKKADAVTLDGGMVFEAGRDPYKLRPVAAEIYGTKESPQTHYYAVAVVKKGSNFQLDQLQGRKSCHTGLGRSAGWIIPMGILRPYLSWTESLEPLQGAVAKFFSASCVPCIDRQAYPNLCQLCKGEGENQCACSSREPYFGYSGAFKCLQDGAGDVAFVKETTVFENLPEKADRDQYELLCLNNSRAPVDAFKECHLAQVPSHAVVARSVDGKEDLIWKLLSKAQEKFGKNKSRSFQLFGSPPGQRDLLFKDSALGFLRIPSKVDSALYLGSRYLTTLKNLRETAEEVKARYTRVVWCAVGPEEQKKCQQWSQQSGQNVTCATASTTDDCIVLVLKGEADALNLDGGYIYTAGKCGLVPVLAENRKSSKHSSLDCVLRPTEGYLAVAVVKKANEGLTWNSLKDKKSCHTAVDRTAGWNIPMGLIVNQTGSCAFDEFFSQSCAPGADPKSRLCALCAGDDQGLDKCVPNSKEKYYGYTGAFRCLAEDVGDVAFVKNDTVWENTNGESTADWAKNLNREDFRLLCLDGTRKPVTEAQSCHLAVAPNHAVVSRSDRAAHVKQVLLHQQALFGKNGKNCPDKFCLFKSETKNLLFNDNTECLAKLGGRPTYEEYLGTEYVTAIANLKKCSTSPLLEACAFLTR
What does the source list for B1?
cell death (Example 8, experiment with (+/−)-alpha tocopherol): 85.9%; cell death (Example 8, experiment with alpha-tocopherol Type V): 96%

From patent publication US6426362B1, “Formulations of tocopherols and methods of making and using them” (Galileo Laboratories, Inc., priority 1999, dated 2002)
